Data taken from article PMC6981144.

What was measured:
[1] = molecular target: human SNAP_GLP1R (SNAP-tagged glucagon-like peptide-1 receptor) (human) (UniProt P43220); test: fluorescent ligand labelling of cells, confocal microscopy; transiently transfected YFP-AD293-SNAP_GLP1R cells; increasing concentrations of compound applied for 60 min; control cells without GLP1R
[2] = molecular target: human SNAP_GLP1R (SNAP-tagged glucagon-like peptide-1 receptor) (human) (UniProt P43220)

Sequence of human SNAP_GLP1R (SNAP-tagged glucagon-like peptide-1 receptor) (human) (P43220 24-463): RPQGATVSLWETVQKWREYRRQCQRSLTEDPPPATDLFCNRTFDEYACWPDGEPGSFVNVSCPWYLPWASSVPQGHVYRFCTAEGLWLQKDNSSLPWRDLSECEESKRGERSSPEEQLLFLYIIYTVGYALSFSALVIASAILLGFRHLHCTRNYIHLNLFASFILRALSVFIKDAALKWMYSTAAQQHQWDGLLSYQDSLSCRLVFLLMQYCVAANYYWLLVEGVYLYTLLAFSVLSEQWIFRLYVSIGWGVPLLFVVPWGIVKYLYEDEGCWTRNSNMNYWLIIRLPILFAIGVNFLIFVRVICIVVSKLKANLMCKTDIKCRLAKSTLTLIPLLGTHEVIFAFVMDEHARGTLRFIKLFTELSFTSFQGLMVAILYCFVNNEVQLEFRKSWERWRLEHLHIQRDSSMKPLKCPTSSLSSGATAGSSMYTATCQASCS

Substance | concentration of maximal labelling [1] | cAMP production (EC50) in HEK293-SNAP GLP1R cells, 30 min stimulation, with the positive allosteric modulator BETP (25 µM) [2]
LUXendin555 (peptide) | 600 nM | 
LUXendin645 (peptide) | 250 to 500 nM | 192 nM
